In US20050181450A1 (published 2005):

B3: IRBIT (IP3R-binding protein released with inositol 1,4,5-trisphosphate) in the high salt extract of mouse cerebellar crude microsome (other)
chain: SMPDAMPLPGVGEELKQAKEIEDAEKYSFMATVTKAPKKQIQFADDMQEFTKFPTKTGRRSLSRSISQSSTDSYSSAASYTDSSDDEVSPREKQQTNSKGSSNFCVKNIKQAEFGRREIEIAEQDMSALISLRKRAQGEKPLAGAKIVGCTHITAQTAVLIETLCALGAQCRWSACNIYSTQNEVAAALAEAGVAVFAWKGESEDDFWWCIDRCVNMDGWQANMILDDGGDLTHWVYKKYPNVFKKIRGIVEESVTGVHRLYQLSKAGKLCVPAMNVNDSVTKQKFDNLYCCRESILDGLKRTTDVMFGGKQVVVCGYGEVGKGCCAALKALGAIVYITEIDPICALQACMDGFRVVKLNEVIRQVDVVITCTGNKNVVTREHLDRMKNSCIVCNMGHSNTEIDVTSLRTPELTWERVRSQVDHVIWPDGKRVVLLAEGRLLNLSCSTVPTFVLSITATTQALALIELYNAPEGRYKQDVYLLPKKMDEYVASLHLPSFDAHLTELTDDQAKYLGLNKNGPFKPNYYRY
notes: Endogenous protein extracted with 500 mM NaCl from crude microsome of mouse cerebellum, not purified; sites not determined; also called IRBIT in the high salt extract

Tests used:
[1] = target: B3; test: GST pulldown from high salt extract, Western blot with anti-IRBIT antibody
Text: (§1) FIG. 9A is the schematic representation of the structure of mouse IP₃R1 and the recombinant GST fusion proteins used in this study. The IP₃ binding core region is indicated with a gray box. Putative membrane-spanning regions are indicated with solid vertical bars. Roman numbers I to V indicate the domain structure of IP₃R1 determined by the limited trypsin digestion (51). Numbers above the bars represent corresponding amino acid residue numbers. […] The high salt extract of crude microsome obtained from mouse cerebella was incubated with GST fusion proteins shown in (A). Bound proteins were pulled down with glutathione-Sepharose, eluted with glutathione, and analyzed by Western blotting using anti-IRBIT antibody. […] Bound proteins were pulled down with glutathione-Sepharose, eluted with glutathione, and then analyzed by Western blotting using anti-IRBIT antibody (upper panel). GST fusion proteins pulled down with glutathione-Sepharose were stained with Coomassie Brilliant Blue (lower panel).
(§2) For the determination of the IRBIT binding region and the critical amino acid residue of IP₃R1, the diluted high salt extract was subjected to pulldown assay as described above with 100 pmol of GST, GST-EL, GST-Ia, GST-Iab, GST-IbIIa, GST-IIab, GST-IIbIIIa, GST-IIIab, GST-IV, GST-IV-Va, K508A or R441Q, and analyzed by Western blotting with anti-IRBIT antibody.

[2] = target: B3; test: GST pulldown from the high salt extract, Western blot with anti-IRBIT antibody
Text: as §1, §2

[3] = target: GST-EL (GST-IP3R1 (1-2217), GST fusion of the N-terminal 2217 amino acid residues of mouse IP3R1) (mouse, UniProt P11881 1-2217); test: cell-based or functional assay
Sequence of GST-EL (GST-IP3R1 (1-2217), GST fusion of the N-terminal 2217 amino acid residues of mouse IP3R1) (P11881 1-2217 N1264K): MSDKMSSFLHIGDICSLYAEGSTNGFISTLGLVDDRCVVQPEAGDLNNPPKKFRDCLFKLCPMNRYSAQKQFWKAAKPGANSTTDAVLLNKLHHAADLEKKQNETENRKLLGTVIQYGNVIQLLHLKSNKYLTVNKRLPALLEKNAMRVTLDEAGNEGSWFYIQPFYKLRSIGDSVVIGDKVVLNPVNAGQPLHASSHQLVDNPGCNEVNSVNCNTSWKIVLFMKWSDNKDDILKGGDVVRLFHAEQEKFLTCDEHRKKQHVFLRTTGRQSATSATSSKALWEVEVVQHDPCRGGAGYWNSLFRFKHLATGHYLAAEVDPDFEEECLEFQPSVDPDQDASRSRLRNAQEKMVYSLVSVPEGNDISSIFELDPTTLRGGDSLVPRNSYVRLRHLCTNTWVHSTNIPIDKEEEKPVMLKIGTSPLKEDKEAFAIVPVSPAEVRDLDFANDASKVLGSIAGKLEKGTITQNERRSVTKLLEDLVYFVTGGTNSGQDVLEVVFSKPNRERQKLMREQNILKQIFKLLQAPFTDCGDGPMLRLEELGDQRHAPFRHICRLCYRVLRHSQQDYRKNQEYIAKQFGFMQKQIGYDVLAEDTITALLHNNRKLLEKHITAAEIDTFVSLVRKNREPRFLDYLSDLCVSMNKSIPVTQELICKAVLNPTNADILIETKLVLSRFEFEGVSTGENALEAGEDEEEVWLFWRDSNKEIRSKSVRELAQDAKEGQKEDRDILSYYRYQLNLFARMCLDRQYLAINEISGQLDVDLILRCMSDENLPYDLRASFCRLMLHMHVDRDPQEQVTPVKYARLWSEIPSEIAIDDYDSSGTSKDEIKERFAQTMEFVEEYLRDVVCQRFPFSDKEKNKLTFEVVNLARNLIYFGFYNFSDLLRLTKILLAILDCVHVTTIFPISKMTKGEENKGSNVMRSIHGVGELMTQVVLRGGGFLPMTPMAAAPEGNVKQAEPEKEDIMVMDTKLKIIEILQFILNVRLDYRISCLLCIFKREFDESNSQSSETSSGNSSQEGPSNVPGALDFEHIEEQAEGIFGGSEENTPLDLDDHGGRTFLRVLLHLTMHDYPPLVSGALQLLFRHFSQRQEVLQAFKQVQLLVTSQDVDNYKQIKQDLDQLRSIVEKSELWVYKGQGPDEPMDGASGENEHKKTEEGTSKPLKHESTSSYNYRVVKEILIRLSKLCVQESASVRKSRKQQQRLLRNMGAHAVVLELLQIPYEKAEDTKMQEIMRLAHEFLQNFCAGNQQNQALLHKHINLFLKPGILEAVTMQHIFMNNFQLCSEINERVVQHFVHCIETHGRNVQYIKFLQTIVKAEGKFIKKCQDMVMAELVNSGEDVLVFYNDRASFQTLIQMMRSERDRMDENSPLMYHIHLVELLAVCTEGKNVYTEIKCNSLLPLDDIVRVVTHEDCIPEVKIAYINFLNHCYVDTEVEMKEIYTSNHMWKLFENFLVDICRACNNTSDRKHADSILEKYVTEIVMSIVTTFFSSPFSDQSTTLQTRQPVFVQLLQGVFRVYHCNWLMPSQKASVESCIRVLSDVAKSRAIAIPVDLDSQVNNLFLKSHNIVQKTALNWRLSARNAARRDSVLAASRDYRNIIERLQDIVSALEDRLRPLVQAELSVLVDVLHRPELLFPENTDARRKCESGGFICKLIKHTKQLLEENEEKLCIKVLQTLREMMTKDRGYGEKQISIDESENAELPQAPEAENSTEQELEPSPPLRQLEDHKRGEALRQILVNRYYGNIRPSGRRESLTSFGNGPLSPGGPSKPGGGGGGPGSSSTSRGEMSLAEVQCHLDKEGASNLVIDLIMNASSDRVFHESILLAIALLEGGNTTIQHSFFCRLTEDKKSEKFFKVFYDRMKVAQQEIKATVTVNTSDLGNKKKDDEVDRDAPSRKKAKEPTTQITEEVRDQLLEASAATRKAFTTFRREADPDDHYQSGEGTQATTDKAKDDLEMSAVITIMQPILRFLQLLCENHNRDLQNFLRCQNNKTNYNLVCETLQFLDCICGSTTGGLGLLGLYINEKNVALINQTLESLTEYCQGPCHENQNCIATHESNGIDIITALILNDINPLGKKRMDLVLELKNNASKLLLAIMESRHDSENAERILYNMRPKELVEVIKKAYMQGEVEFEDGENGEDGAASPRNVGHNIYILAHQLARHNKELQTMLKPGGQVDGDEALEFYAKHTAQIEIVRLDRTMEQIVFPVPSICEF

[4] = target: T1, GST-IIIab (GST fusion of amino acids 916-1581 of mouse IP3R1) (mouse, UniProt P11881 916-1581); test: GST pulldown from the high salt extract, Western blot with anti-IRBIT antibody
T1 construct: Expressed in Escherichia coli; not shown: glutathione S-transferase (GST) tag of vector pGEX-KG
Text: as §1, §2

[5] = target: T2, GST-IIbIIIa (GST fusion of amino acids 600-1248 of mouse IP3R1) (mouse, UniProt P11881 600-1248); test: as above
T2 construct: Expressed in Escherichia coli; not shown: glutathione S-transferase (GST) tag of vector pGEX-KG
T2 sequence (P11881 600-1248): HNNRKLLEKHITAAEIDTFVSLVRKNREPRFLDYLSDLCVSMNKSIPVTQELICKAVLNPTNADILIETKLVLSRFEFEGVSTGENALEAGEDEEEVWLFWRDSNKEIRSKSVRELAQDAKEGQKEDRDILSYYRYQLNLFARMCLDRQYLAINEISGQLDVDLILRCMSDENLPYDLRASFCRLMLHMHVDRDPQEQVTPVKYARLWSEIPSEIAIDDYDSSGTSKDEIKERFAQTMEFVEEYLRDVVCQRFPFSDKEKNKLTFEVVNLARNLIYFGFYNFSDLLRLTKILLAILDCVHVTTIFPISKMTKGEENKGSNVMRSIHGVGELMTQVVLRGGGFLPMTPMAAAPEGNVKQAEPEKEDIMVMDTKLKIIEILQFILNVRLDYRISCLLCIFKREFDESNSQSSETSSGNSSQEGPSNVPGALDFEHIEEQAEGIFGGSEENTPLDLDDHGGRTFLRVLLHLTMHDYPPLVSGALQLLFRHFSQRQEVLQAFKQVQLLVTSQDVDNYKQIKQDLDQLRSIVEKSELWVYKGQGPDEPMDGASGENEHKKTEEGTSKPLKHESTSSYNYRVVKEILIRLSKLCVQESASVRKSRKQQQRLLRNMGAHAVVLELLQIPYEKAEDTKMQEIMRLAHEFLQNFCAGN
Text: as §1, §2

[6] = target: T3, GST-IV-Va (GST fusion of amino acids 1593-2217 of mouse IP3R1) (mouse, UniProt P11881 1593-2217); test: as above
T3 construct: Expressed in Escherichia coli; not shown: glutathione S-transferase (GST) tag of vector pGEX-4T-1
T3 sequence (P11881 1593-2217): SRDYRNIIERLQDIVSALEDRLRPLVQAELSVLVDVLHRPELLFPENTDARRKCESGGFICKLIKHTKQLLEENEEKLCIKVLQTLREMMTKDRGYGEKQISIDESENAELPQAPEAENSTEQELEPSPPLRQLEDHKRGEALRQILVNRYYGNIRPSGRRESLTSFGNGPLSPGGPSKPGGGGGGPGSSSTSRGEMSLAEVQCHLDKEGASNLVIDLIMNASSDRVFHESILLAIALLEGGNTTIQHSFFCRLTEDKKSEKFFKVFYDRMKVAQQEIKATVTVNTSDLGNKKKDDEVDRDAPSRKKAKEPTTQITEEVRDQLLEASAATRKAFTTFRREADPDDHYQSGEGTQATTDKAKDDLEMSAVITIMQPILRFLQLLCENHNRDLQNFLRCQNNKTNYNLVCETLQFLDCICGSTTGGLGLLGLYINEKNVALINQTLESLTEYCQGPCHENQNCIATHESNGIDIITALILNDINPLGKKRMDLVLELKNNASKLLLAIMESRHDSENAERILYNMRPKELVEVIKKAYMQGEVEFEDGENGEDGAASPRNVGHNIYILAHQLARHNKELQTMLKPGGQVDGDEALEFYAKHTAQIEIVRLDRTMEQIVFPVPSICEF
Text: as §1, §2

[7] = target: T4, GST-IIab (GST fusion of amino acids 341-923 of mouse IP3R1) (mouse, UniProt P11881 341-923); test: GST pulldown from high salt extract, Western blot with anti-IRBIT antibody
T4 construct: Expressed in Escherichia coli; not shown: glutathione S-transferase (GST) tag of vector pGEX-KG
T4 sequence (P11881 341-923): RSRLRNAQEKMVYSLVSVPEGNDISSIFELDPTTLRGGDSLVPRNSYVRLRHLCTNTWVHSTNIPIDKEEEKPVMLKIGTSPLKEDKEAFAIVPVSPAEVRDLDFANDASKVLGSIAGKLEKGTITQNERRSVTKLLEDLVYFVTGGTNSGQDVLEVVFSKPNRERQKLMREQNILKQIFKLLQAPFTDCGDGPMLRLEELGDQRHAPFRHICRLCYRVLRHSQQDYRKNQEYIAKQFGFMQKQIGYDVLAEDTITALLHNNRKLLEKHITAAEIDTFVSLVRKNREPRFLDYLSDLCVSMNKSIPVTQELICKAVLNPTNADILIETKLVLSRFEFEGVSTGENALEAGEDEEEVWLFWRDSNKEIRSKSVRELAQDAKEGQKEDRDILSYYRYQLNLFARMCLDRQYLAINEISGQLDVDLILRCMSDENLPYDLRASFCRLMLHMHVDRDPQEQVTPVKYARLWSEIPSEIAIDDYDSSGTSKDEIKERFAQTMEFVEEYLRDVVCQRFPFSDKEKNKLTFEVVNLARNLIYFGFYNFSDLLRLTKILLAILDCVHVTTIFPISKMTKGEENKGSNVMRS
Text: as §1, §2

B1: K508A (site-directed mutant of GST-IbIIa, lysine 508 of IP3R1 substituted with alanine) (receptor)
chain: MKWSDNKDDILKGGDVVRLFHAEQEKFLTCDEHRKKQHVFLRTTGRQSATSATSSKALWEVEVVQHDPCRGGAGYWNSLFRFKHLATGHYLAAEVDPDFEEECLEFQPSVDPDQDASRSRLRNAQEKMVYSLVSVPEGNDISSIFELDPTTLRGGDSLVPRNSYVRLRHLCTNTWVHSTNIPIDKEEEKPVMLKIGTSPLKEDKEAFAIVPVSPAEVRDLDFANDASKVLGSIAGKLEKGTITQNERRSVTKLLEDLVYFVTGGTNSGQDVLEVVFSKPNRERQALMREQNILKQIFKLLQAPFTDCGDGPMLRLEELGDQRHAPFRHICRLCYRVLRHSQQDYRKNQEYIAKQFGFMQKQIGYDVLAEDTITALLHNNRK
notes: not shown: The GST carrier at the N end and its vector linker
**Q.** Does B1 bind [1]?
**A.** no binding (tested: 100 pmol of GST fusion protein)

B2: GST-IV (GST fusion of amino acids 1553-1943 of mouse IP3R1) (receptor)
chain: DLDSQVNNLFLKSHNIVQKTALNWRLSARNAARRDSVLAASRDYRNIIERLQDIVSALEDRLRPLVQAELSVLVDVLHRPELLFPENTDARRKCESGGFICKLIKHTKQLLEENEEKLCIKVLQTLREMMTKDRGYGEKQISIDESENAELPQAPEAENSTEQELEPSPPLRQLEDHKRGEALRQILVNRYYGNIRPSGRRESLTSFGNGPLSPGGPSKPGGGGGGPGSSSTSRGEMSLAEVQCHLDKEGASNLVIDLIMNASSDRVFHESILLAIALLEGGNTTIQHSFFCRLTEDKKSEKFFKVFYDRMKVAQQEIKATVTVNTSDLGNKKKDDEVDRDAPSRKKAKEPTTQITEEVRDQLLEASAATRKAFTTFRREADPDDHYQSGE
notes: Expressed in Escherichia coli; not shown: glutathione S-transferase (GST) tag of vector pGEX-KG
**Q.** Does B2 bind [2]?
**A.** no binding (tested: 100 pmol GST fusion protein)

**Q.** B3 was tested. Which “EC50 (IP3 concentration required for half (50%)-maximal dissociation of IRBIT from GST-EL)” value [3] did it give?
**A.** ~500 nM

**Q.** Does B3 bind [4]?
**A.** no binding (tested: 100 pmol GST fusion protein)

**Q.** Does B3 bind [5]?
**A.** no binding (tested: 100 pmol GST fusion protein)

**Q.** Does B3 bind [6]?
**A.** no binding (tested: 100 pmol GST fusion protein)

**Q.** Does B3 bind [7]?
**A.** no binding (tested: 100 pmol of GST fusion protein)

B4: GST-Ia (GST fusion of amino acids 1-225 of mouse IP3R1) (receptor)
chain: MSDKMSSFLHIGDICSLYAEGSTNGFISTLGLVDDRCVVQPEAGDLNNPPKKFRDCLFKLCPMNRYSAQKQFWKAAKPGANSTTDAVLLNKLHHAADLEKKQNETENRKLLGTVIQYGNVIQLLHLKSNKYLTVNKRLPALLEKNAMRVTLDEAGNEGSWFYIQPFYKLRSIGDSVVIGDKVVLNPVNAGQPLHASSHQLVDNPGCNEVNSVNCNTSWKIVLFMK
notes: as for B2
**Q.** Does B4 bind [2]?
**A.** no binding (tested: 100 pmol GST fusion protein)

B5: GST-Iab (GST fusion of amino acids 1-343 of mouse IP3R1) (receptor)
chain: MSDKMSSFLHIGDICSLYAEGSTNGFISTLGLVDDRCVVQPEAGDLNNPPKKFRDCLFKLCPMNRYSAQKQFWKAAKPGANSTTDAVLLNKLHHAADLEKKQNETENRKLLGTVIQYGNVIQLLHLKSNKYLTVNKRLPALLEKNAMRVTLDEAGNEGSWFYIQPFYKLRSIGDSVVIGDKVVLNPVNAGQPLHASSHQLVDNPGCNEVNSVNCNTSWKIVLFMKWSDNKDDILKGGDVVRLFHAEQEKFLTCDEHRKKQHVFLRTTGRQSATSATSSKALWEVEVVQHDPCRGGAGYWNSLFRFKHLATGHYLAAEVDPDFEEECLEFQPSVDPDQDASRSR
notes: as for B2
**Q.** Does B5 bind [1]?
**A.** no binding (tested: 100 pmol of GST fusion protein)
